The target in this assay is recombinant stabilized complete spike protein (SARS-CoV-2), pre-fusion stabilised (SARS-CoV-2) (UniProt P0DTC2). Put plainly: affinity purification with mass spectrometry.

With “human serum albumin (from UniProt P02768 25-609) (natural protein)”, the mean MALDI-ToF peak intensity of eluted HSA was 1920 AU and the percent of samples in which HSA was detected in the eluate came to 72%.

(Values after doi:10.1101/2021.06.14.21258871.)
